Numbering of substitutions follows the chain as printed.
B1: chimeric H chain / humanized L chain version b antibody (antibody, V domains shown)
VH: EVQLQQSGTNLVRPGALVKLSCKGSGFNIKDYYMHWVKQRPEQGLEWIGGNDPANGHSMYDPKFQGKASITADTSSNTAYLQLSSLTSEDTAVYFCARDSGYAMDYWGQGTSVTVSS
VL: DIQMTQSPSSLSASVGDRVTITCKASQDIKSFLSWYQQKPGKAPKLLIYYATSLADGVPSRFSGSGSGTDYTLTISSLQPEDFATYYCLQHGESPYTFGGGTKVEIK
notes: Expressed from N5KG4P (human IgG4-type); also called ch-b
B2: humanized H chain version a / humanized L chain version a antibody (antibody, V domains shown)
VH: QVQLLESGAVLARPGTSVKISCKASGFNIKDYYMHWVKQRPGQGLEWIGGNDPANGHSMYDPKFQGRAKLTAATSASIAYLEFSSLTNEDSAVYYCARDSGYAMDYWGQGTLVTVSS
VL: B1 VL with Y71F
notes: Expressed from N5KG4P (human IgG4-type)
B3: chimeric H chain / humanized L chain version c antibody (antibody, V domains shown)
VH: B1 VH
VL: B1 VL with F83I
notes: as for B2
B4: chimeric H chain / humanized L chain version a antibody (antibody, V domains shown)
VH: B1 VH
VL: B1 VL with Y71F
notes: as for B2
B5: chimeric H chain / humanized L chain version b2 antibody (antibody, V domains shown)
VH: B1 VH
VL: B1 VL with G41E, L46S
notes: Expressed from N5KG4P (human IgG4-type); also called ch-b2
B6: chimeric H chain / humanized L chain version b1 antibody (antibody, V domains shown)
VH: B1 VH
VL: B1 VL with Y36F, A43S, L46T
notes: Expressed from N5KG4P (human IgG4-type); also called ch-b1
B7: humanized H chain version b / chimeric L chain antibody (antibody, V domains shown)
VH: QVQLLESGAVLARPGTSVKISCKASGFNIKDYYMHWVKQRPGQGLEWIGGNDPANGHSMYDPKFQGRVTITADTSTNTAYMELSSLRSEDTAIYYCARDSGYAMDYWGQGTLVTVSS
VL: DIKMTQSPSSMYASLGERVTITCKASQDIKSFLSWYQQKPWKSPKTLIYYATSLADGVPSRFSGSGSGQDYSLTINNLESDDTATYYCLQHGESPYTFGGGTKLEIK
notes: as for B2
B8: humanized H chain version a / chimeric L chain antibody (antibody, V domains shown)
VH: B2 VH
VL: B7 VL
notes: as for B2
B9: H chain humanized version b / L chain humanized version b antibody (antibody, V domains shown)
VH: B7 VH
VL: B1 VL
notes: also called b-b; humanized antibody version b-b
B10: humanized H chain version c / chimeric L chain antibody (antibody, V domains shown)
VH: QVQLLESGAVLARPGTSVKISCKASGFNIKDYYMHWVKQRPGQGLEWIGGNDPANGHSMYDPKFQGRVTMLVDTSKNQFSLRLSSVTAADTAVYYCARDSGYAMDYWGQGTLVTVSS
VL: B7 VL
notes: as for B2
B11: humanized H chain version g / humanized L chain version b antibody (antibody, V domains shown)
VH: B7 VH with R67K, V68A, I70L, T74E, T76S, N77S, E82Q, T91S, I93V, Y95S
VL: B1 VL
notes: Expressed from N5KG4P (human IgG4-type); also called g-b
B12: humanized H chain version b / humanized L chain version c antibody (antibody, V domains shown)
VH: B7 VH
VL: B1 VL with F83I
notes: Human IgG4-type (N5KG4P series); also called b-c
B13: humanized H chain version j / chimeric L chain antibody (antibody, V domains shown)
VH: B7 VH with I70F, T76A, S84R, E89A, I93V
VL: B7 VL
notes: as for B2
B14: humanized H chain version i / humanized L chain version b1 antibody (antibody, V domains shown)
VH: B7 VH with N77S, A79V, Y80F, I93V
VL: B1 VL with Y36F, A43S, L46T
notes: Expressed from N5KG4P (human IgG4-type); also called i-b1
B15: humanized H chain version b / humanized L chain version a antibody (antibody, V domains shown)
VH: B7 VH
VL: B1 VL with Y71F
notes: Expressed from N5KG4P (human IgG4-type); also called b-a
B16: humanized H chain version d / humanized L chain version b antibody (antibody, V domains shown)
VH: B7 VH with T74E, N77S, T91S, I93V, Y95F
VL: B1 VL
notes: Expressed from N5KG4P (human IgG4-type); also called d-b
B17: humanized H chain version d / chimeric L chain antibody (antibody, V domains shown)
VH: B7 VH with T74E, N77S, T91S, I93V, Y95F
VL: B7 VL
notes: as for B2
B18: humanized H chain version i / chimeric L chain antibody (antibody, V domains shown)
VH: B7 VH with N77S, A79V, Y80F, I93V
VL: B7 VL
notes: as for B2
B19: H chain humanized version i / L chain humanized version b2 antibody (antibody, V domains shown)
VH: B7 VH with N77S, A79V, Y80F, I93V
VL: B1 VL with G41E, L46S
notes: also called i-b2; humanized anti-human TF antibody version i-b2
B20: humanized H chain version d3 / humanized L chain version b antibody (antibody, V domains shown)
VH: B7 VH with K38R, R40A, T74E, N77S, T91S, I93V, Y95F
VL: B1 VL
notes: Expressed from N5KG4P (human IgG4-type); also called d3-b
B21: humanized H chain version j / humanized L chain version b antibody (antibody, V domains shown)
VH: B7 VH with I70F, T76A, S84R, E89A, I93V
VL: B1 VL
notes: Expressed from N5KG4P (human IgG4-type); also called j-b
B22: humanized H chain version b3 / humanized L chain version b antibody (antibody, V domains shown)
VH: B7 VH with K38R, R40A
VL: B1 VL
notes: Expressed from N5KG4P (human IgG4-type); also called b3-b
B23: H chain humanized version i / L chain humanized version b antibody (antibody, V domains shown)
VH: B7 VH with N77S, A79V, Y80F, I93V
VL: B1 VL
notes: also called humanized antibody version i-b
B24: humanized H chain version b / humanized L chain version b2 antibody (antibody, V domains shown)
VH: B7 VH
VL: B1 VL with G41E, L46S
notes: Expressed from N5KG4P (human IgG4-type); also called b-b2
B25: humanized H chain version e / chimeric L chain antibody (antibody, V domains shown)
VH: B7 VH with T69S, T74E, N77K, T78I, S84N, I93V, Y95F
VL: B7 VL
notes: as for B2
B26: chimeric ATR-5 antibody (H chain chimeric/L chain chimeric) (antibody, V domains shown)
VH: B1 VH
VL: B7 VL
notes: Mouse ATR-5 V regions on human C regions; Both IgG1-type (N5KG1(V)) and IgG4-type (N5KG4P) vectors were made; also called ch-ch; chimeric antibody

Molecular target: T1, human tissue factor (TF) on cells (human, UniProt P13726 33-295)
T1 construct: also called human TF; the antigen
Assay: cell ELISA on fixed J82 cells expressing TF

Row | binding result | Binder
1 | binds | B1
2 | binds | B2
3 | binds | B3
4 | binds | B4
5 | binds | B5
6 | binds | B6
7 | binds | B7
8 | binds | B8
9 | binds | B9
10 | binds | B10
11 | binds | B11
12 | binds | B12
13 | binds | B13
14 | binds | B14
15 | binds | B15
16 | binds | B16
17 | binds | B17
18 | binds | B18
19 | binds | B19
20 | binds | B20
21 | binds | B21
22 | binds | B22
23 | binds | B23
24 | binds | B24
25 | binds | B25

Molecular target: T1, human tissue factor (TF) on cells
Assay: cell ELISA on fixed J82 cells expressing TF; chimeric antibody is the reference

Row | binding result | Binder
26 | binds | B26
